From PMC7599583 (Viruses, 2020)
Where “and” joins values, the source holds several entries; their conditions need not be identical. Identical values can stand only once.

Assays:
[1] = target: T1, Human adenovirus serotype 7 fiber knob, His-tagged (His-HAd7K), wild type (human adenovirus serotype 7 (HAdV7), …); assay: cryo-EM structure; settings: both partners purified
T1 chain: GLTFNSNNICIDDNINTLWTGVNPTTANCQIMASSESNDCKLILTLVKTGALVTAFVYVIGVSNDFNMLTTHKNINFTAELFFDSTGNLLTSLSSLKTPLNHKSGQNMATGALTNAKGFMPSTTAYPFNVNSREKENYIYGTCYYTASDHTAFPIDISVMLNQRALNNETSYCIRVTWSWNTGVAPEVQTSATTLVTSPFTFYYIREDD

[2] = target: T2, Human adenovirus serotype 7 fiber knob, His-tagged (His-HAd7K), wild type (human adenovirus serotype 7 (HAdV7), …); assay: BLI
T2 chain: T1 chain

[3] = target: T2, Human adenovirus serotype 7 fiber knob, …; assay: BLI
[4] = target: T3, Human adenovirus serotype 7 fiber knob, His-tagged (His-HAd7K), wild type (human adenovirus serotype 7 (HAdV7), …, N-glycosylated (sugars almost 15% of the total mass by mass spectrometry) / Wild-type trimeric knob; N-terminal His tag and GSHM omitted. The printed limits D87-P273 do not fit the paper's own residue); assay: cryo-EM structure; settings: both partners purified
T3 chain: T1 chain

B1: Human adenovirus serotype 7 fiber knob, His-tagged (His-HAd7K), wild type (domain or fragment)
chain: T1 chain
modifications: Wild-type trimeric knob; N-terminal His tag and GSHM omitted. The printed limits D87-P273 do not fit the paper's own residue numbering (V300 and P302 are present in the knob), so the deposited knob …
[1]
  stoichiometry N: 3

B2: Desmoglein-2 (DSG2), non His-tagged, Leinco Technologies (receptor)
chain: AWITAPVALREGEDLSKKNPIAKIHSDLAEERGLKITYKYTGKGITEPPFGIFVFNKDTGELNVTSILDREETPFFLLTGYALDARGNNVEKPLELRIKVLDINDNEPVFTQDVFVGSVEELSAAHTLVMKINATDADEPNTLNSKISYRIVSLEPAYPPVFYLNKDTGEIYTTSVTLDREEHSSYTLTVEARDGNGEVTDKPVKQAQVQIRILDVNDNIPVVENKVLEGMVEENQVNVEVTRIKVFDADEIGSDNWLANFTFASGNEGGYFHIETDAQTNEGIVTLIKEVDYEEMKNLDFSVIVANKAAFHKSIRSKYKPTPIPIKVKVKNVKEGIHFKSSVISIYVSESMDRSSKGQIIGNFQAFDEDTGLPAHARYVKLEDRDNWISVDSVTSEIKLAKLPDFESRYVQNGTYTVKIVAISEDYPRKTITGTVLINVEDINDNCPTLIEPVQTICHDAEYVNVTAEDLDGHPNSGPFSFSVIDKPPGMAEKWKIARQESTSVLLQQSEKKLGRSEIQFLISDNQGFSCPEKQVLTLTVCECLHGSGCREAQHDSYVG
modifications: Wild-type trimeric knob; N-terminal His tag and GSHM omitted. The printed limits D87-P273 do not fit the paper's own residue numbering (V300 and P302 are present in the knob), so the deposited knob entity (same as 3EXW) with the last shaft repeat is used. Entity position = fiber number - 112 (D265=153, F269=157, N192=80), an offset inferred by assuming a 325-residue fiber and comparing with HAd3K.
[2]
  koff: 0.000112 s⁻¹
[3]
  Kd: 4.04 nM

B3: EC2-EC3 domains of desmoglein-2 (EC23 module), glycosylated (domain or fragment, UniProt Q14126 149-386, looked up)
chain: VLDINDNEPVFTQDVFVGSVEELSAAHTLVMKINATDADEPNTLNSKISYRIVSLEPAYPPVFYLNKDTGEIYTTSVTLDREEHSSYTLTVEARDGNGEVTDKPVKQAQVQIRILDVNDNIPVVENKVLEGMVEENQVNVEVTRIKVFDADEIGSDNWLANFTFASGNEGGYFHIETDAQTNEGIVTLIKEVDYEEMKNLDFSVIVANKAAFHKSIRSKYKPTPIPIKVKVKNVKEGI
notes: also called EC2-EC3 module; EC23 module of DSG2
[4]
  stoichiometry N: 2 EC23 modules per HAd7K trimer and 3 EC23 modules per HAd7K trimer
